Measured values taken from ChEMBL document CHEMBL3526024, “Oral availability of cefadroxil depends on ABCC3 and ABCC4” (Drug Metab Dispos, 2012).

How the values were obtained:
[1] = substrate: CC1=C(C(=O)O)N2C(=O)[C@@H](NC(=O)[C@H](N)c3ccc(O)cc3)[C@H]2SC1; test: Activity of recombinant human ABCC3 expressed in baculovirus infected insect Sf21 cell plasma membrane vesicles assessed as transporter-mediated drug uptake by liquid scintillation counting analysis in presence of ATP; format: ADME
[2] = substrate: CC1=C(C(=O)O)N2C(=O)[C@@H](NC(=O)[C@H](N)c3ccc(O)cc3)[C@H]2SC1; test: Activity of recombinant human ABCC1 expressed in baculovirus infected insect Sf21 cell plasma membrane vesicles assessed as transporter-mediated drug uptake by liquid scintillation counting analysis in presence of ATP; format: ADME
[3] = substrate: CO/N=C(\C(=O)N[C@@H]1C(=O)N2C(C(=O)O)=CCS[C@H]12)c1csc(N)n1; test: (§1) Activity of recombinant human MRP4 expressed in adenovirus infected HEK293 cell plasma membrane vesicles assessed as transporter-mediated drug uptake after 2 mins by Michaelis-Menten plot analysis in presence of ATP; format: ADME, cell-based
[4] = substrate: Cc1nnc(SCC2=C(C(=O)O)N3C(=O)[C@@H](NC(=O)Cn4cnnn4)[C@H]3SC2)s1; test: as §1; format: ADME, cell-based
[5] = substrate: CC1=C(C(=O)O)N2C(=O)[C@@H](NC(=O)[C@H](N)c3ccc(O)cc3)[C@H]2SC1; test: Activity of recombinant human ABCC4 expressed in baculovirus infected insect Sf21 cell plasma membrane vesicles assessed as transporter-mediated drug uptake by liquid scintillation counting analysis in presence of ATP; format: ADME

B1: ATP-binding cassette sub-family C member 3 (Homo sapiens) (protein)
chain: MDALCGSGELGSKFWDSNLSVHTENPDLTPCFQNSLLAWVPCIYLWVALPCYLLYLRHHCRGYIILSHLSKLKMVLGVLLWCVSWADLFYSFHGLVHGRAPAPVFFVTPLVVGVTMLLATLLIQYERLQGVQSSGVLIIFWFLCVVCAIVPFRSKILLAKAEGEISDPFRFTTFYIHFALVLSALILACFREKPPFFSAKNVDPNPYPETSAGFLSRLFFWWFTKMAIYGYRHPLEEKDLWSLKEEDRSQMVVQQLLEAWRKQEKQTARHKASAAPGKNASGEDEVLLGARPRPRKPSFLKALLATFGSSFLISACFKLIQDLLSFINPQLLSILIRFISNPMAPSWWGFLVAGLMFLCSMMQSLILQHYYHYIFVTGVKFRTGIMGVIYRKALVITNSVKRASTVGEIVNLMSVDAQRFMDLAPFLNLLWSAPLQIILAIYFLWQNLGPSVLAGVAFMVLLIPLNGAVAVKMRAFQVKQMKLKDSRIKLMSEILNGIKVLKLYAWEPSFLKQVEGIRQGELQLLRTAAYLHTTTTFTWMCSPFLVTLITLWVYVYVDPNNVLDAEKAFVSVSLFNILRLPLNMLPQLISNLTQASVSLKRIQQFLSQEELDPQSVERKTISPGYAITIHSGTFTWAQDLPPTLHSLDIQVPKGALVAVVGPVGCGKSSLVSALLGEMEKLEGKVHMKGSVAYVPQQAWIQNCTLQENVLFGKALNPKRYQQTLEACALLADLEMLPGGDQTEIGEKGINLSGGQRQRVSLARAVYSDADIFLLDDPLSAVDSHVAKHIFDHVIGPEGVLAGKTRVLVTHGISFLPQTDFIIVLADGQVSEMGPYPALLQRNGSFANFLCNYAPDEDQGHLEDSWTALEGAEDKEALLIEDTLSNHTDLTDNDPVTYVVQKQFMRQLSALSSDGEGQGRPVPRRHLGPSEKVQVTEAKADGALTQEEKAAIGTVELSVFWDYAKAVGLCTTLAICLLYVGQSAAAIGANVWLSAWTNDAMADSRQNNTSLRLGVYAALGILQGFLVMLAAMAMAAGGIQAARVLHQALLHNKIRSPQSFFDTTPSGRILNCFSKDIYVVDEVLAPVILMLLNSFFNAISTLVVIMASTPLFTVVILPLAVLYTLVQRFYAATSRQLKRLESVSRSPIYSHFSETVTGASVIRAYNRSRDFEIISDTKVDANQRSCYPYIISNRWLSIGVEFVGNCVVLFAALFAVIGRSSLNPGLVGLSVSYSLQVTFALNWMIRMMSDLESNIVAVERVKEYSKTETEAPWVVEGSRPPEGWPPRGEVEFRNYSVRYRPGLDLVLRDLSLHVHGGEKVGIVGRTGAGKSSMTLCLFRILEAAKGEIRIDGLNVADIGLHDLRSQLTIIPQDPILFSGTLRMNLDPFGSYSEEDIWWALELSHLHTFVSSQPAGLDFQCSEGGENLSVGQRQLVCLARALLRKSRILVLDEATAAIDLETDNLIQATIRTQFDTCTVLTIAHRLNTIMDYTRVLVLDKGVVAEFDSPANLIAARGIFYGMARDAGLA
Km [1]: 2500 µM
Vmax [1]: 0.0006 µmol/min

B2: Multidrug resistance-associated protein 1 (Homo sapiens) (protein)
chain: MALRGFCSADGSDPLWDWNVTWNTSNPDFTKCFQNTVLVWVPCFYLWACFPFYFLYLSRHDRGYIQMTPLNKTKTALGFLLWIVCWADLFYSFWERSRGIFLAPVFLVSPTLLGITMLLATFLIQLERRKGVQSSGIMLTFWLVALVCALAILRSKIMTALKEDAQVDLFRDITFYVYFSLLLIQLVLSCFSDRSPLFSETIHDPNPCPESSASFLSRITFWWITGLIVRGYRQPLEGSDLWSLNKEDTSEQVVPVLVKNWKKECAKTRKQPVKVVYSSKDPAQPKESSKVDANEEVEALIVKSPQKEWNPSLFKVLYKTFGPYFLMSFFFKAIHDLMMFSGPQILKLLIKFVNDTKAPDWQGYFYTVLLFVTACLQTLVLHQYFHICFVSGMRIKTAVIGAVYRKALVITNSARKSSTVGEIVNLMSVDAQRFMDLATYINMIWSAPLQVILALYLLWLNLGPSVLAGVAVMVLMVPVNAVMAMKTKTYQVAHMKSKDNRIKLMNEILNGIKVLKLYAWELAFKDKVLAIRQEELKVLKKSAYLSAVGTFTWVCTPFLVALCTFAVYVTIDENNILDAQTAFVSLALFNILRFPLNILPMVISSIVQASVSLKRLRIFLSHEELEPDSIERRPVKDGGGTNSITVRNATFTWARSDPPTLNGITFSIPEGALVAVVGQVGCGKSSLLSALLAEMDKVEGHVAIKGSVAYVPQQAWIQNDSLRENILFGCQLEEPYYRSVIQACALLPDLEILPSGDRTEIGEKGVNLSGGQKQRVSLARAVYSNADIYLFDDPLSAVDAHVGKHIFENVIGPKGMLKNKTRILVTHSMSYLPQVDVIIVMSGGKISEMGSYQELLARDGAFAEFLRTYASTEQEQDAEENGVTGVSGPGKEAKQMENGMLVTDSAGKQLQRQLSSSSSYSGDISRHHNSTAELQKAEAKKEETWKLMEADKAQTGQVKLSVYWDYMKAIGLFISFLSIFLFMCNHVSALASNYWLSLWTDDPIVNGTQEHTKVRLSVYGALGISQGIAVFGYSMAVSIGGILASRCLHVDLLHSILRSPMSFFERTPSGNLVNRFSKELDTVDSMIPEVIKMFMGSLFNVIGACIVILLATPIAAIIIPPLGLIYFFVQRFYVASSRQLKRLESVSRSPVYSHFNETLLGVSVIRAFEEQERFIHQSDLKVDENQKAYYPSIVANRWLAVRLECVGNCIVLFAALFAVISRHSLSAGLVGLSVSYSLQVTTYLNWLVRMSSEMETNIVAVERLKEYSETEKEAPWQIQETAPPSSWPQVGRVEFRNYCLRYREDLDFVLRHINVTINGGEKVGIVGRTGAGKSSLTLGLFRINESAEGEIIIDGINIAKIGLHDLRFKITIIPQDPVLFSGSLRMNLDPFSQYSDEEVWTSLELAHLKDFVSALPDKLDHECAEGGENLSVGQRQLVCLARALLRKTKILVLDEATAAVDLETDDLIQSTIRTQFEDCTVLTIAHRLNTIMDYTRVIVLDKGEIQEYGAPSDLLQQRGLFYSMAKDAGLV
Km [2]: 3900 µM
Vmax [2]: 0.0124 µmol/min

B3: ATP-binding cassette sub-family C member 4 (Homo sapiens) (protein)
chain: MLPVYQEVKPNPLQDANLCSRVFFWWLNPLFKIGHKRRLEEDDMYSVLPEDRSQHLGEELQGFWDKEVLRAENDAQKPSLTRAIIKCYWKSYLVLGIFTLIEESAKVIQPIFLGKIINYFENYDPMDSVALNTAYAYATVLTFCTLILAILHHLYFYHVQCAGMRLRVAMCHMIYRKALRLSNMAMGKTTTGQIVNLLSNDVNKFDQVTVFLHFLWAGPLQAIAVTALLWMEIGISCLAGMAVLIILLPLQSCFGKLFSSLRSKTATFTDARIRTMNEVITGIRIIKMYAWEKSFSNLITNLRKKEISKILRSSCLRGMNLASFFSASKIIVFVTFTTYVLLGSVITASRVFVAVTLYGAVRLTVTLFFPSAIERVSEAIVSIRRIQTFLLLDEISQRNRQLPSDGKKMVHVQDFTAFWDKASETPTLQGLSFTVRPGELLAVVGPVGAGKSSLLSAVLGELAPSHGLVSVHGRIAYVSQQPWVFSGTLRSNILFGKKYEKERYEKVIKACALKKDLQLLEDGDLTVIGDRGTTLSGGQKARVNLARAVYQDADIYLLDDPLSAVDAEVSRHLFELCICQILHEKITILVTHQLQYLKAASQILILKDGKMVQKGTYTEFLKSGIDFGSLLKKDNEESEQPPVPGTPTLRNRTFSESSVWSQQSSRPSLKDGALESQDTENVPVTLSEENRSEGKVGFQAYKNYFRAGAHWIVFIFLILLNTAAQVAYVLQDWWLSYWANKQSMLNVTVNGGGNVTEKLDLNWYLGIYSGLTVATVLFGIARSLLVFYVLVNSSQTLHNKMFESILKAPVLFFDRNPIGRILNRFSKDIGHLDDLLPLTFLDFIQTLLQVVGVVSVAVAVIPWIAIPLVPLGIIFIFLRRYFLETSRDVKRLESTTRSPVFSHLSSSLQGLWTIRAYKAEERCQELFDAHQDLHSEAWFLFLTTSRWFAVRLDAICAMFVIIVAFGSLILAKTLDAGQVGLALSYALTLMGMFQWCVRQSAEVENMMISVERVIEYTDLEKEAPWEYQKRPPPAWPHEGVIIFDNVNFMYSPGGPLVLKHLTALIKSQEKVGIVGRTGAGKSSLISALFRLSEPEGKIWIDKILTTEIGLHDLRKKMSIIPQEPVLFTGTMRKNLDPFNEHTDEELWNALQEVQLKETIEDLPGKMDTELAESGSNFSVGQRQLVCLARAILRKNQILIIDEATANVDPRTDELIQKKIREKFAHCTVLTIAHRLNTIIDSDKIMVLDSGRLKEYDEPYVLLQNKESLFYKMVQQLGKAEAAALTETAKQVYFKRNYPHIGHTDHMVTNTSNGQPSTLTIFETAL
Km [3]: 18 µM
Km [4]: 81 µM
Km [5]: 250 µM
Vmax [5]: 0.0012 µmol/min
